Target: Aβ extracted from AD brain (human (endogenous in AD brain))
Experiment: immunoprecipitation and SDS-PAGE Western blot

stoichiometry N: 2
Substance: Aβ extracted from AD brain (peptide)

Reference: publication PMC4222117
